Assay [1] concerns the target MBP-tagged Vif–CBFβ–EloB–EloC complex (wild type) (HIV-1 (pNL4–3) | human | , UniProt P12504;Q13951-2;Q15370;Q15369). The assay can be described thus: pull-down.
The target in assay [2] is MBP-tagged Vif–CBFβ–EloB–EloC complex with CBFβ E54K (HIV-1 (pNL4–3) | human | , UniProt P12504;Q13951-2;Q15370;Q15369, E54K). Briefly: pull-down.
Assay [3] deals with truncated Vif–CBFβ subcomplex (Vif176Δ114–157 with CBFβ151) (HIV-1 (pNL4–3) | human, UniProt P12504;Q13951). Briefly: SEC. (In general: Size exclusion chromatography separates by hydrodynamic size, large species first.)

Where a chain is given by its changes, count along the chain named. In names and notes the source's numbering stands.

B1: A3F_(CTDm) D260R/D261R (domain or fragment)
chain: KEILRNPMEAMDPHIFYFHFKNLRKAYGRNESWLCFTMEVVKHHSPVSWKRGVFRNQVDPETGRHAERCFLSWFCRRILSPNTNYEVTWYTSWSPCPECAGEVAEFLARHSNVNLTIKTARLYYFKDTDAAEGLRSLSQEGASVEIMGYKDFKYCWENFVYNDDEPFKPWDGLDYNFLDLDSKLQEILE
Regarding B1, the binding result in assay [1] was “binds”.

B2: A3F_(CTDm) R293D (domain or fragment)
chain: B1 chain with R76D, R77D, R109D
As for B2, the binding result in assay [2] is recorded as “binds”.

B3: A3F_(CTDm) D347R (domain or fragment)
chain: B1 chain with R76D, R77D, D163R
For the molecule B3, the binding result in assay [3] and in assay [1] was “binds” each time.

B4: A3F_(CTDm) P265A (domain or fragment)
chain: B1 chain with R76D, R77D, P81A
Take B4: the binding result in assay [1] was “binds”.
